# Reference: patent US20240132573A1
# How the values were obtained:
# Test in all cases: cell-based or functional assay
# Plasmin = Plasmin (UniProt P00747)
# Activated protein C = Activated protein C (UniProt P04070)
# Plasma kallikrein = Plasma kallikrein (UniProt P03952)
# Thrombin = Thrombin (UniProt P00734)
# Human βFXIIa (Human) = target: T1, Human βFXIIa (Human) (UniProt P00748)
# T1 sequence (looked up): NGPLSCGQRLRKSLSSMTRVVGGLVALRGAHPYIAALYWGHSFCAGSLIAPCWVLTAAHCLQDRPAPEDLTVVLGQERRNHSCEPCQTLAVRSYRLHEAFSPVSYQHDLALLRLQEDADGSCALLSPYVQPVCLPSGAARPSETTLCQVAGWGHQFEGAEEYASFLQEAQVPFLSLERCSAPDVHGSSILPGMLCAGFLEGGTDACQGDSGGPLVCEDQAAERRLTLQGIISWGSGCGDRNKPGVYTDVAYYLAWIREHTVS
# Human αFXIIa (Human) = Human αFXIIa (Human) (UniProt P00748)
# Plasmin, sequence (P00747 97-810 limits assumed): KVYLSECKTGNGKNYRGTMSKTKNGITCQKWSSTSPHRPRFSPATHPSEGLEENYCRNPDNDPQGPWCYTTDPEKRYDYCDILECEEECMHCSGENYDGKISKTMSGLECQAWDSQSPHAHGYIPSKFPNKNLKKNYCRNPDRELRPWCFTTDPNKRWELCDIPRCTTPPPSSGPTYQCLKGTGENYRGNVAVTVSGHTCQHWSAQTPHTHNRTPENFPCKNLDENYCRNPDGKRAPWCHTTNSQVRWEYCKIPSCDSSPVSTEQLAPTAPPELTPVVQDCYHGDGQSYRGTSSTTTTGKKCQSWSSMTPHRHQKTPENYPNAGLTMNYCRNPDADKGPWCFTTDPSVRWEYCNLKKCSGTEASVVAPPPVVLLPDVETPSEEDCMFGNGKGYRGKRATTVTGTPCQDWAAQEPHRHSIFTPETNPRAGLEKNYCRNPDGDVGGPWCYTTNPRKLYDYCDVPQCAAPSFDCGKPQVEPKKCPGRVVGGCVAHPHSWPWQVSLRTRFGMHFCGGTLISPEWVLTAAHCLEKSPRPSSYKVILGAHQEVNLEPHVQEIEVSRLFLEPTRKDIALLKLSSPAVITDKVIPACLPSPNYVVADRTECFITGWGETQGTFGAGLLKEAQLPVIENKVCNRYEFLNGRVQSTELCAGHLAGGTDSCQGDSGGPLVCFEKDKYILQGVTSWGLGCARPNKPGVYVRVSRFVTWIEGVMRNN
# Plasma kallikrein, sequence (P03952 20-638 limits assumed): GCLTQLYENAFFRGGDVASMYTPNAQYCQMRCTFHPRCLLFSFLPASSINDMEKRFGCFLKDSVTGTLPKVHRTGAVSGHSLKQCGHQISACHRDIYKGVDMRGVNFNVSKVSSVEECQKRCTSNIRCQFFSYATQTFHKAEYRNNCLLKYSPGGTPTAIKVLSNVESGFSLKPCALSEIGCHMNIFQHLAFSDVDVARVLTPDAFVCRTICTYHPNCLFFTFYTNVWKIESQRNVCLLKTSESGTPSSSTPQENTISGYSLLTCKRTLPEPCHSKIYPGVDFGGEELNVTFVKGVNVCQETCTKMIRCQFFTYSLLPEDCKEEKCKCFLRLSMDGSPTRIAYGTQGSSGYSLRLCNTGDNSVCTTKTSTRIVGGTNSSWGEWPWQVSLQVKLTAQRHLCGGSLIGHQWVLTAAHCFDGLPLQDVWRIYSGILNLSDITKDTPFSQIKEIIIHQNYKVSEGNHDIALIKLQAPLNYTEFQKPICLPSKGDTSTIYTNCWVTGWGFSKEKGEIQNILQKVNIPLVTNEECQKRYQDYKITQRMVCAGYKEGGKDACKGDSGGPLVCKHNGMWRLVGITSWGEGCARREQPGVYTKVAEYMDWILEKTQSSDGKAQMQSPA
# Activated protein C, sequence (P04070 43-461): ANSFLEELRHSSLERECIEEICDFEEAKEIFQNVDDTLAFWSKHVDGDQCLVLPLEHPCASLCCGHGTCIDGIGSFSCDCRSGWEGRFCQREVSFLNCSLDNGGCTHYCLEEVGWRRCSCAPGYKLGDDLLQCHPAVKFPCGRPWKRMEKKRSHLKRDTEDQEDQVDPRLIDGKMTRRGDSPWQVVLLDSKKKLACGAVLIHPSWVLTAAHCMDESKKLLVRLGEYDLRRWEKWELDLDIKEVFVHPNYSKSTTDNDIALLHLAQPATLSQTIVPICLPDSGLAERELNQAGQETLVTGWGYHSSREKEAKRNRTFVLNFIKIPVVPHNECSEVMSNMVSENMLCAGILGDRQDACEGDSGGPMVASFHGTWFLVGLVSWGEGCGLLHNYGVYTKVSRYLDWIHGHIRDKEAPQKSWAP
# α1-Antitrypsin WT, sequence (P01009 25-418): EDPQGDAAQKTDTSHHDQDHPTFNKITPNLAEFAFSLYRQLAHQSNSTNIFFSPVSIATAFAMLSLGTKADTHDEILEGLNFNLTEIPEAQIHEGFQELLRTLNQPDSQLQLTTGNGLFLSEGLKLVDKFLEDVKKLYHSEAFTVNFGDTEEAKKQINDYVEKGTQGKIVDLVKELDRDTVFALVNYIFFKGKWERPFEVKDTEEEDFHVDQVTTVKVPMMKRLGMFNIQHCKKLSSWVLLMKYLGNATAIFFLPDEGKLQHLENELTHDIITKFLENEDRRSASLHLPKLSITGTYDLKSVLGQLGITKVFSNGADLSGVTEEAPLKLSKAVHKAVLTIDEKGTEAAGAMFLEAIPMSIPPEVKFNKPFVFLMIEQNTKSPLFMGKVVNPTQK
Substance,"percentage inhibition, average (I1390 conversion) (Plasmin)","percentage inhibition, average (S2366 conversion) (Activated protein C)","percentage inhibition, average (L2120 conversion) (Plasma kallikrein)","percentage inhibition, average (I1140 conversion) (Thrombin)","percentage inhibition, average (L2120 conversion) (Human βFXIIa (Human))","percentage inhibition, average (L2120 conversion) (Human αFXIIa (Human))"
α1-Antitrypsin variant SMTRox*-GVGG (from UniProt P01009 25-418),20%,3%,39%,3%,9%,–
α1-Antitrypsin variant SYARox* (from UniProt P01009 25-418),0%,7%,97%,62%,20%,–
α1-Antitrypsin variant SLLRox* (from UniProt P01009 25-418),94.7%,9.7%,97.7%,62.3%,41%,–
α1-Antitrypsin variant SNSRox* (from UniProt P01009 25-418),0%,7%,97%,62%,20%,–
α1-Antitrypsin variant SLGRox* (from UniProt P01009 25-418),5.3%,1%,95.5%,9.5%,17.3%,–
α1-Antitrypsin variant SMTR (from UniProt P01009 25-418),94%,75%,98.5%,10.5%,85%,88.5%
α1-Antitrypsin variant SLLRox*-I (from UniProt P01009 25-418),66.7%,2.3%,91.3%,3.7%,40.3%,–
α1-Antitrypsin variant SMTRox* (from UniProt P01009 25-418),94.5%,76.5%,98.7%,10.3%,89.2%,92.5%
α1-Antitrypsin variant 357AR358 (from UniProt P01009 25-418),99%,66.5%,98%,97.5%,49%,62.5%
α1-Antitrypsin variant SDYKox* (from UniProt P01009 25-418),7%,1%,50%,0%,7%,–
α1-Antitrypsin variant SKGRox* (from UniProt P01009 25-418),37%,0%,97%,7%,22%,–
α1-Antitrypsin variant SGQRox* (from UniProt P01009 25-418),5%,6.5%,88%,14.5%,4%,4.5%
α1-Antitrypsin variant SEARox* (from UniProt P01009 25-418),13%,3%,92%,0%,6%,–
α1-Antitrypsin variant M358R (from UniProt P01009 25-418),100%,94%,91.5%,100%,90%,94%
α1-Antitrypsin variant SPRRox* (from UniProt P01009 25-418),19%,1%,97%,0%,2%,1%
α1-Antitrypsin variant SWKKox* (from UniProt P01009 25-418),47%,0%,94%,0%,5%,–
α1-Antitrypsin WT (from UniProt P01009 25-418),0%,0%,0%,0%,0%,0%
α1-Antitrypsin variant SGNRox* (from UniProt P01009 25-418),1%,1%,71.6%,0%,5.2%,–
α1-Antitrypsin variant SLLRox*-V (from UniProt P01009 25-418),68%,3%,97.5%,4.5%,47%,–
α1-Antitrypsin variant SVVKox* (from UniProt P01009 25-418),95%,8%,55%,6%,2%,4%
α1-Antitrypsin variant SMDRox* (from UniProt P01009 25-418),20%,0%,87%,0%,4%,–
α1-Antitrypsin variant SMTRox*-VVGG (from UniProt P01009 25-418),8%,0%,47%,1%,29%,–
α1-Antitrypsin variant SFNRox* (from UniProt P01009 25-418),3%,5%,94%,7%,3%,5%
α1-Antitrypsin variant SVRKox* (from UniProt P01009 25-418),97%,4%,91%,1%,0%,2%
α1-Antitrypsin variant SATRox* (from UniProt P01009 25-418),0%,10%,94%,3%,15%,17%
α1-Antitrypsin variant SVTRox* (from UniProt P01009 25-418),97%,49%,99%,7%,39%,47%
α1-Antitrypsin variant SMHRox* (from UniProt P01009 25-418),73%,34%,96.3%,10%,18.3%,–
